Results reported in patent publication US20220154156A1, “PROTEINS AND METHODS FOR DISRUPTING BACTERIAL COMMUNICATION” (REGENTS OF THE UNIVERSITY OF MINNESOTA, priority 2019, published 2022).

Tests used:
[1] = Lactonase assay (pH indicator, cresol purple), kinetic measurements; type: biochemical; conditions: AHL acyl chain length
Experimental: Kinetic measurements. The determination of GcL catalytic efficiency was performed by using a microplate reader (Synergy HTX, BioTek, USA) and the software Gen5.1 over a range of substrates (FIG. 2). The reactions were operate in a 96-well plate at a path length of 5.8 mm for a 200 μl reaction volume at room temperature. The catalytic parameters were achieved by fitting the data to Michaelis-Menten equation with the Graph-Pad Prism 5 software. When, Vmax was not reached, the catalytic efficiency was determined by fitting the linear part of Michaelis-Menten plot to a linear regression using Graph-Pad Prism 5.
Lactonase assay. The AHL lactonolysis consisting in the opening of the lactone ring generates a proton, and leads to an acidification of the media. This property allowed the characterization of the lactonases by using a pH indicator assay. To perform the experiment 5 μl of enzyme were added to a solution containing 10 μl of substrates at various concentrations and 185 μl of lactonase buffer (2.5 mM Bicine pH 8.3, 150 mM NaCl, 0.2 mM CoCl2, 0.2 mM cresol purple, 0.5% DMSO). This assay was performed at 25° C. and the time course of the lactones hydrolysis was recorded at 577 nm. The characterization of the enzyme was proceeding against a large panel of AHLs: C4-AHL, C6-AHL, C8-AHL, C10-AHL, 3-oxo-C8-AHL and against γ-Butyrolactone, γ-Heptalactone, γ-Nonalactone, γ-Decanolactone, δ-Valerolactone, δ-Octanolactone, δ-Nonalactone, δ-Decalactone, ε-Caprolactone, ε-Decalactone, Whiskey lactone.

[2] = test system: corrosion tubercles on steel coupons; assay: Biocorrosion of coated steel coupons in Duluth-Superior Harbor water, 8 weeks; set-up: concentration or dose not given beside the values; conditions: silica gel coating, two months in DSH water
Experimental: The steel coupons were washed with soap water, lightly brushed for a few seconds with a test tube brush, and then rinsed with Milli-Q water to remove any loose material. Each coupon was designated with a unique number and weighed before being randomly assigned to a specific experimental treatment.
Each compound or enzyme was added to 5 ml of the silica gel matrix to develop different coating treatments. These coatings were applied by dipping coupons into the appropriate gel mixture for 1 minute, and then the coating on the coupon surface was air-dried at room temperature for 2 hours.
Six treatments and three controls were investigated for corrosion rate and changes in bacterial communities (Table 10). Each treatment or control contained three replicate steel coupons. After the triplicate steel coupons were coated with each biochemical, enzyme or bacterial treatment, they were incubated in experimental microcosms constructed from 10-gallon glass aquaria (Aqueon Glass, 50.8 cm×25.4 cm×30.5 cm) (FIG. 24). Each microcosm was equipped with an aquarium pump (Aquarium Systems Mini-Jet 404) to constantly circulate the water (˜2 L hr−1), and covered with a piece of acrylic with one corner cut out to allow gas exchange. The coupons were hold with plastic holders and immersed in water taken from the DSH for 8 weeks and then recovered for analyses.
The coupons in each treatment was photographed by the end of the experiment. Biocorrosion was evaluated by the number and coverage of corrosion tubercles, and also by imaging of coupon surfaces with an environmental scanning electron microscope (ESEM). The coupon images were captured with DSLR camera immediately after being removed from the harbor water, and then tubercle numbers and total area in digital images were measured using the analyze menu within ImageJ software (NIH, Bethesda, Md., USA). Surface roughness measurements were also made after the exposed coupons were cleaned with ASTM G1-90 iron and steel chemical cleaning procedure (2 min in 37% HCl, 50 g/L SnCl2). A Hitachi TM-3030 ESEM was used to view details of the cleaned coupon surface and the 3D-View software was used to generate surface roughness measurements (SRa). Statistics analysis (T-tests) of the tubercle numbers, coverage and surface roughness were performed using Microsoft Excel software.

[3] = test system: corrosion tubercles on steel coupons; assay: Dose-response of lactonase for inhibiting biocorrosion, 7 weeks
Experimental: Five treatments with lactonase enzyme and two controls of the steel coupons were investigated for enzyme activity and corrosion rate. Each treatment or control contained three replicate steel coupons. They were exposed in lake water in lab microcosm for a period of 7 weeks. Lactonase enzyme silica gel coated testing coupon are prepared as described before, except the coupons were dipped and dried twice and covered with 2 layers of the same coating to ensure the intactness of the coating. The enzyme concentrations used in this experiment were 100, 200, 500, 1000 μg/ml. Also 100 μg/ml equivalent activity lactonase raw extract was tested to compare the effectiveness of raw enzyme extract to the purified lactonase enzyme.
After 7 weeks of exposure, coupons were retrieved and analyzed. The coupons in each treatment was photographed by the end of the experiment. Biocorrosion was evaluated by quantities and coverage of corrosion tubercle. Surface roughness measurement were also made with procedure described above.

[4] = test system: Pectobacterium carotovorum CIR354; assay: Soft rot potato assay; type: in vivo; conditions: single spraying of 1 mL, 10 mg/mL
Experimental: (§1) FIG. 30A-30F show control of plant infections by a single spraying of 1 mL of lactonase solution (10 mg/mL) on plant leaves and crop. (A) and (B) Soft rot potato assay.
(§2) Specifically, we could establish infection systems for corn, wheat, and barley plants, and a crop infection system for potato (tubers and leaves).

[5] = test system: Xanthomonas translucens pv. undulosa LMG892; assay: Wheat leaf infection; type: in vivo; conditions: single spraying of 1 mL, 10 mg/mL
Experimental: as §1, §2

[6] = test system: P. syringae pv. Phaseolicola; assay: Kidney bean plant infection; type: in vivo; conditions: sprayed, 14 days, multiple inoculations
Experimental: Plants were inoculated twice (day 1 and day 6) with 5×10^6 cells P. syringae pv. Phaseolicola. Left, leaves were sprayed with enzyme buffer after the fist inoculation, for right, leaves were sprayed with buffer containing the QQ lactonase (0.5 mg/mL). Pictures were taken at day 14.
Kidney bean plants were grown and infected with P. syringae pv. Phaseolicola.

soil bacterial community = assay: Different lactonases on soil microbial community (Example 8); type: cell-based; conditions: 7 days, vs inactive SsoPox 5A8
Experimental: Principal component analysis (PCA) based on deep bacterial 16S rDNA sequences (Illumina V4 region).
The same experiments as described above were performed on the same soil microbial community but with two different lactonases, GcL, and Ssopox W263I. These enzymes differ primarily by their substrate specificity. […] This is important because different bacteria use different AHLs to communicate. Indeed, The structure of AHLs vary a lot with respect to the length of N-acyl chains (from C4 to C18), the hydroxyl or oxo group of the acyl chain and the saturated or unsaturated state of the carbon chain^1. The hydrophobicity of AHLs relates to their passive diffusion through membranes. […] In fact, regulatory circuits may be interconnected, like in P. aeruginosa^6, and allow for compensatory responses: if the LasI/LasR system is inactivated, the RhlI/RhlR system can still control LasI/LasR-spectific functions^7.

[7] = 25° C., purified protein sample; cited from earlier work
[8] = all concentrations 100-1000 μg/ml, 7 weeks, p<0.05

B1: SsoPox W263I: improved variant of the hyperthermostable lactonase SsoPox from Sulfolobus solfataricus, exhibiting higher catalytic rates (protein, UniProt Q97VT7 1-314, looked up, variant W263I)
Aryldialkylphosphatase: MRIPLVGKDSIESKDIGFTLIHEHLRVFSEAVRQQWPHLYNEDEEFRNAVNEVKRAMQFGVKTIVDPTVMGLGRDIRFMEKVVKATGINLVAGTGIYIYIDLPFYFLNRSIDEIADLFIHDIKEGIQGTLNKAGFVKIAADEPGITKDVEKVIRAAAIANKETKVPIITHSNAHNNTGLEQQRILTEEGVDPGKILIGHLGDTDNIDYIKKIADKGSFIGLDRYGLDLFLPVDKRNETTLRLIKDGYSDKIMISHDYCCTIDIGTAKPEYKPKLAPRWSITLIFEDTIPFLKRNGVNEEVIATIFKENPKKFFS
Question: Which substrate specificity [1] does the source give for B1 here?
Answer: The substrate specificity was “not capable of degrading short chain AHLs”.

Question: And the “reduction of the coverage of corrosion tubercles” value [2]?
Answer: Its value is 50%.

Question: What about the “reduction of the number (formation) of corrosion tubercles” value [2] of the same molecule?
Answer: The value was 50%.

Question: What about the “reduction of number of corrosion tubercles” value [3, 8] of the same molecule?
Answer: The value was > 38%.

Question: And the “reduction of percent coverage of corrosion tubercles” value [3, 8]?
Answer: Its value is > 41%.

Question: And the “reduction of surface roughness” value ([3]; all treatments)?
Answer: The value was “not statistically significant”.

Question: And the “optimal concentration for coating application” value ([3]; highest reduction of corrosion tubercles)?
Answer: Its value is 200 µg/mL.

Question: And the “maceration of potato slices” value [4]?
Answer: Its value is “less maceration”.

Question: And the “leaf spots on wheat leaves” value [5]?
Answer: Its value is “Absence of leaf spots”.

Question: What about the “protection of kidney bean plant” value [6] of the same molecule?
Answer: Its value is “protected the plant from infection”.

Question: What about the “planktonic microbial community composition” value (soil bacterial community) of the same molecule?
Answer: Its value is “induce differential planktonic microbial community biases”.

Question: And the time remaining stable [7]?
Answer: Its time remaining stable is > 300 days.
